Source: paper PMC6192259 (Molecular cell, 2017)

Assays:
Dim1 = Dim1 (yeast, UniProt P41819 1-318); experiment: pull-down
MBP-Dim1 = MBP-Dim1 (yeast, UniProt P41819 1-318); experiment: pull-down
MBP-Dim1, sequence (P41819 whole entry): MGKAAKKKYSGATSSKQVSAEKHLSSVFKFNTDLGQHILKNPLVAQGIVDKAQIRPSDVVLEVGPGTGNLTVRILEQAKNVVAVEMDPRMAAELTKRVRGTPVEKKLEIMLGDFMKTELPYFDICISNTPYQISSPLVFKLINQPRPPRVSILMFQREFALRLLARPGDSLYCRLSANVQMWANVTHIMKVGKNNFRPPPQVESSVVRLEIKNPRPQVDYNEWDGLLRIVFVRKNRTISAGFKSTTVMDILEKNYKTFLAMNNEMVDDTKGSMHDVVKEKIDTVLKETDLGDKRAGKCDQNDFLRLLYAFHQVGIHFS

Dim1, sequence (P41819 whole entry): as above

B1: MBP-Fap7 (enzyme, yeast, UniProt Q12055 1-197, looked up)
chain: MEARRYGPNIIVTGTPGCGKSSTCEFLKNKLKDYKYYNISDFAKDNDCFEGYDEGRKSHIVDEDKLLDMLEPLLRQGNSIVDWHVNDVFPERLIDLVVVLRCDNSNLYSRLHARGYHDSKIEENLDAEIMGVVKQDAVESYEPHIVVELQSDTKEDMVSNVSRIVAWEKMWLEQHPDGVTNEYQGPRSDDEDDEDSE
Dim1
  binding result: binds

B2: Fap7 (enzyme, yeast, UniProt Q12055 1-197, looked up)
chain: MEARRYGPNIIVTGTPGCGKSSTCEFLKNKLKDYKYYNISDFAKDNDCFEGYDEGRKSHIVDEDKLLDMLEPLLRQGNSIVDWHVNDVFPERLIDLVVVLRCDNSNLYSRLHARGYHDSKIEENLDAEIMGVVKQDAVESYEPHIVVELQSDTKEDMVSNVSRIVAWEKMWLEQHPDGVTNEYQGPRSDDEDDEDSE
MBP-Dim1
  binding result: binds
